Key:
[1] = target: Human CK1δ catalytic domain (CK1, residues 1–317), wild type (human) (UniProt P48730)
CK1 D132A = assay: 32P-ATP time course kinase assay, CK1 D132A compared with WT; assay type: biochemical, human; settings: 200 μM peptide, 30°C, pH 7.5, four independent assays
Description: (§1) PER FASP region peptides were synthesized and purified to 95% or higher (SABio). Two independent reaction mixtures of 50 μL containing 200 μM of the FASP or in reaction buffer (25 mM Tris (pH 7.5), 7.5 mM MgCl2, 1 mM DTT, and 0.1 mg/mL BSA) were preincubated for 5 min with or without 20 nM CK1 (for primed FASP) or 200 nM CK1 (for unprimed FASP) and the reaction was started by addition of 750 μM of UltraPure ATP (Promega) containing 1–2 μCi of ɣ-^32p ATP (PerkinElmer). After incubation of the reaction mix at 30°C, an 8-μL aliquot of the reaction mix was transferred to P81 phosphocellulose paper (Reaction Biology Corp) at the indicated timepoints. […] The air-dried P81 paper was counted for Pi incorporation using a scintillation counter (PerkinElmer) by Cherenkov counting. […]
To map binding sites on the surface of CK1, we employed FTMap, a fast computational approach that uses small organic probes to identify consensus sites (or pockets) that are likely to bind drug -like molecules. We submitted a series of conformations representative of the most populated MSM states to the FTMap server (https://ftmap.bu.edu/) and analyzed the results with FTProd. […] Tables S7 and S8 describe the consensus sites (CS) detected for WT and tau conformations, respectively. When a site is detected (colorful cells), it contains a score based on […]

CK1 [2] = assay: 32P-ATP time course kinase assay, PER3 FASP-like peptides; assay type: biochemical, human; settings: 32P-ATP time course, 200 μM peptide, 200 nM CK1 (unprimed), 750 μM ATP, 30°C, pH 7.5; four independent assays; Fig. S15E, F
Description: as §1
To map binding sites on the surface of CK1, we employed FTMap, a fast computational approach that uses small organic probes to identify consensus sites (or pockets) that are likely to bind drug -like molecules. We submitted a series of conformations representative of the most populated MSM states to the FTMap server (https://ftmap.bu.edu/) and analyzed the results with FTProd. […] Tables S7 and S8 describe the consensus sites (CS) detected for WT and tau conformations, respectively. When a site is detected (colorful cells), it contains a score based on (1 picture or pasted object on this page, not shown here)

CK1 [3] = settings: cited from earlier work
Text: Here, we further tested our model by introducing a lysine at the −3 position and a glutamate at the −1 position of PER3 FASP-like peptides (A610K/L612E) to mimic the PER2 FASP priming region and rescue priming activity. These mutant peptides were used in a ^32P-ATP time course kinase assay ...

Sequence of UniProt P48730 (P48730 other isoform, or with tags, fused parts or gaps mutant): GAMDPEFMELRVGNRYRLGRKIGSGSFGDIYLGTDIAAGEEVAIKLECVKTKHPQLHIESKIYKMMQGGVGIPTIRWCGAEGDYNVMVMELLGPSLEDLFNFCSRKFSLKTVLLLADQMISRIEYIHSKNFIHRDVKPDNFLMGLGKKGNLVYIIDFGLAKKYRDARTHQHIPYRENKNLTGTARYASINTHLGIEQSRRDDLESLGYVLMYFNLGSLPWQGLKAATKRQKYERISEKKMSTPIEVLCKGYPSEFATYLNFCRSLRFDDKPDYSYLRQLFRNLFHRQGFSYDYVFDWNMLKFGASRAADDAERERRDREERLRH

“human PER2 FASP peptide, “priming only” (S665A)” gave an apparent Michaelis-Menten constant (KMapp) of CK1 priming activity, ADP-Glo substrate titration (200 nM CK1, 100 μM ATP, room temperature, 1 h) [1] of 210 µM.

Molecule “human PER2 FASP peptide, alanine at position −1 (E661) in the “priming only” (S665A) background” has a fold change of the apparent Michaelis-Menten constant (KMapp) against the WT “priming only” substrate, ADP-Glo substrate titration [1] of 10 fold.

Molecule “human PER2 FASP peptide, alanine at position −3 (K659) in the “priming only” (S665A) background” has a fold change of the apparent Michaelis-Menten constant (KMapp) against the WT “priming only” substrate, ADP-Glo substrate titration [1] of 10 fold.

With “RKKKTEVSAHLSSLTLP GKAESVVSLTSQ [unprimed FASP peptide, synthetic mouse PER2 FASP peptide, unprimed]” the “activity of CK1 D132A compared with CK1 WT on unprimed FASP (in words)” value (CK1 D132A; 200 nM CK1, 750 μM ATP, Fig. S15B) was “dramatic loss in activity”.

In the case of “RKKKTEVSAHLSSLTL PGKAEpSVVSLTSQ [primed FASP peptide, synthetic mouse PER2 FASP peptide, pS659 primed]”, the “activity of CK1 D132A compared with CK1 WT on primed FASP (in words)” value (CK1 D132A; 20 nM CK1, 750 μM ATP, Fig. S15C) is reported as “more modest effect”.

For “RKKKPSTDIEGGAAR TLSTKAESVAAGIAQ [A610K/L612E (priming only), PER3 KAE peptide with serine residues downstream of the priming site mutated to alanine]”, the “CK1 activity in presence of −3K and −1E (in words)” value (CK1 [2]) was “increase in CK1 activity”.

With “RKKKPSTDIEGGAART LSTKAESVASGISQ [A610K/L612E, PER3 FASP-like peptide with −3K and −1E (A610K/L612E)]” the “CK1 activity in presence of −3K and −1E (in words)” value (CK1 [2]) was “increase in CK1 activity”.

B1: PER3: PER homolog within the circadian system (protein, UniProt P56645 1-1201, looked up)
Period circadian protein …: MPRGEAPGPGRRGAKDEALGEESGERWSPEFHLQRKLADSSHSEQQDRNRVSEELIMVVQEMKKYFPSERRNKPSTLDALNYALRCVHSVQANSEFFQILSQNGAPQADVSMYSLEELATIASEHTSKNTDTFVAVFSFLSGRLVHISEQAALILNRKKDVLASSHFVDLLAPQDMRVFYAHTARAQLPFWNNWTQRAARYECAPVKPFFCRIRGGEDRKQEKCHSPFRIIPYLIHVHHPAQPELESEPCCLTVVEKIHSGYEAPRIPVNKRIFTTTHTPGCVFLEVDEKAVPLLGYLPQDLIGTSILSYLHPEDRSLMVAIHQKVLKYAGHPPFEHSPIRFCTQNGDYIILDSSWSSFVNPWSRKISFIIGRHKVRTSPLNEDVFATKIKKMNDNDKDITELQEQIYKLLLQPVHVSVSSGYGSLGSSGSQEQLVSIASSSEASGHRVEETKAEQMTLQQVYASVNKIKNLGQQLYIESMTKSSFKPVTGTRTEPNGGGECKTFTSFHQTLKNNSVYTEPCEDLRNDEHSPSYQQINCIDSVIRYLKSYNIPALKRKCISCTNTTSSSSEEDKQNHKADDVQALQAGLQIPAIPKSEMPTNGRSIDTGGGAPQILSTAMLSLGSGISQCGYSSTIVHVPPPETARDATLFCEPWTLNMQPAPLTSEEFKHVGLTAAVLSAHTQKEEQNYVDKFREKILSSPYSSYLQQESRSKAKYSYFQGDSTSKQTRSAGCRKGKHKRKKLPEPPDSSSSNTGSGPRRGAHQNAQPCCPSAASSPHTSSPTFPPAAMVPSQAPYLVPAFPLPAATSPGREYAAPGTAPEGLHGLPLSEGLQPYPAFPFPYLDTFMTVFLPDPPVCPLLSPSFLPCPFLGATASSAISPSMSSAMSPTLDPPPSVTSQRREEEKWEAQSEGHPFITSRSSSPLQLNLLQEEMPRPSESPDQMRRNTCPQTEYCVTGNNGSESSPATTGALSTGSPPRENPSHPTASALSTGSPPMKNPSHPTASALSTGSPPMKNPSHPTASTLSMGLPPSRTPSHPTATVLSTGSPPSESPSRTGSAASGSSDSSIYLTSSVYSSKISQNGQQSQDVQKKETFPNVAEEPIWRMIRQTPERILMTYQVPERVKEVVLKEDLEKLESMRQQQPQFSHGQKEELAKVYNWIQSQTVTQEIDIQACVTCENEDSADGAATSCGQVLVEDSC
In the case of B1, the “CK1 substrate status (in words)” value (CK1 [3]) is listed as “does not appear to be a substrate of the kinase”.

Source: PMC12709424, “Markovian state models uncover casein kinase 1 dynamics that govern circadian period” (Biophysical Journal, 2025)
